Assay results as given in article PMC8872386 (Chemical Science, 2021).
Ends that are not written are not given here.

Legend:
Assay in all cases: fluorescence polarisation
[1] = target: Sgo1 peptide (residues 446–466) bearing fluorescein (UniProt Q5FBB7)
[2] = target: chemically synthesized full-length heterochromatin protein 1α without PTMs (21) (UniProt P45973 1-191)
[3] = target: recombinant HP1α (UniProt P45973 1-191)
Chain of recombinant HP1α (P45973 whole entry): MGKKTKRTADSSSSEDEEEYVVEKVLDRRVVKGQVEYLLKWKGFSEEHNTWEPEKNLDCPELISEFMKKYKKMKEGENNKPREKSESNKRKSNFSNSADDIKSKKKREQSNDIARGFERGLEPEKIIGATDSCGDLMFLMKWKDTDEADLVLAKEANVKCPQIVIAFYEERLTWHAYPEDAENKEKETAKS

Chain of chemically synthesized full-length heterochromatin protein 1α without PTMs (21) (P45973 whole entry): as above

Kd [1] [nM] | Kd [2] [nM] | Kd [3] [nM] | Molecule
1870 | – | – | chemically synthesized HP1α ubiquitinated at K154 (21f) (from UniProt P45973 1-191; P0CG48 1-76)
– | 470 | 510 | NVSLYPVVKIRRLSLSPKKNK (peptide, UniProt Q5FBB7 446-466, looked up, also: fluorescein, position not given here) [Sgo1 peptide (residues 446–466) bearing fluorescein]
